Measurements reported in paper PMC4367269, “Probing the Acceptor Active Site Organization of the Human Recombinant β1,4-Galactosyltransferase 7 and Design of Xyloside-based Inhibitors” (The Journal of Biological Chemistry, 2015).

T1: hβ4GalT7 (GST-β4GalT7) (Homo sapiens, UniProt Q9UBV7)
T1 construct: gene B4GALT7; truncated soluble form lacking the first 60 N-terminal amino acids (transmembrane domain and part of stem), GST fusion (tag kept), pET-41a(+), E. coli BL21(DE3), glutathione-Sepharose purified
T1 sequence (Q9UBV7 61-327): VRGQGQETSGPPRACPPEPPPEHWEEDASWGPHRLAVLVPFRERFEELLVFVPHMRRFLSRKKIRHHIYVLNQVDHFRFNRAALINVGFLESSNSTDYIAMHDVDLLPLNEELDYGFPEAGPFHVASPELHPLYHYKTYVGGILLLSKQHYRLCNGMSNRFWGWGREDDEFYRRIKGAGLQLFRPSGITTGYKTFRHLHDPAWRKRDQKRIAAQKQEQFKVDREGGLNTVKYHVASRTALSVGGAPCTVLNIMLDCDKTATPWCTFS


Key:
hβ4GalT7 (GST-β4GalT7) [1] = target: T1, hβ4GalT7 (GST-β4GalT7); assay: galactosyltransferase competition assay, HPLC-UV; type: biochemical
Excerpt: galactosyltransferase competition assay, HPLC-UV on hβ4GalT7 (GST-β4GalT7)

hβ4GalT7 (GST-β4GalT7) [2] = target: T1, hβ4GalT7 (GST-β4GalT7); assay: galactosyltransferase competition assay, HPLC-UV; type: biochemical; details: 0.5 mM 4-MUX, 1 mM UDP-Gal, 10 mM MnCl2, 100 mM sodium cacodylate pH 7.0, 37 °C; IC50 and Ki not determined
[3] = substrate: Cc1cc(=O)oc2cc(O[C@@H]3OC[C@@H](O)[C@H](O)[C@H]3O)ccc12; assay: galactosyltransferase assay, HPLC-UV; type: biochemical, Homo sapiens; details: apparent, fixed 1 mM UDP-Gal, 10 mM MnCl2, 100 mM sodium cacodylate pH 7.0, 37 °C
Excerpt: (§1) galactosyltransferase assay, HPLC-UV on hβ4GalT7 (GST-β4GalT7)

[4] = substrate: O=c1ccn([C@@H]2O[C@H](COP(=O)(O)OP(=O)(O)O[C@H]3O[C@H](CO)[C@H](O)[C@H](O)[C@H]3O)[C@@H](O)[C@H]2O)c(=O)[nH]1; assay: galactosyltransferase assay, HPLC-UV; type: biochemical, Homo sapiens; details: apparent, fixed 5 mM 4-MUX, 10 mM MnCl2, 100 mM sodium cacodylate pH 7.0, 37 °C
Excerpt: as §1

IC50 (hβ4GalT7 (GST-β4GalT7) [1]) [µM]	Ki (hβ4GalT7 (GST-β4GalT7) [1]) [µM]	% decrease of activity at the highest concentration (5 mM) (hβ4GalT7 (GST-β4GalT7) [2]) [%]	Molecule	Km [3] [µM]	kcat [3] [s⁻¹]	kcat/Km [3] [M⁻¹ s⁻¹]	Km [4] [µM]	kcat [4] [s⁻¹]	kcat/Km [4] [M⁻¹ s⁻¹]
1280 ± 220	530 ± 100	–	Cc1cc(=O)oc2cc(O[C@@H]3OCC[C@H](O)[C@H]3O)ccc12 [4H-Xyl-MU, 4-Methylumbelliferyl-4-deoxy-β-D-xylopyranoside]	–	–	–	–	–	–
–	–	< 25	O[C@H]1[C@H](Oc2ccc3ccccc3c2)OCC[C@@H]1O [4H-Xyl-NP, Naphthyl-4-deoxy-β-D-xylopyranoside]	–	–	–	–	–	–
–	–	–	hβ4GalT7 (GST-β4GalT7) (Homo sapiens; H195R) (protein, truncated soluble form lacking the first 60 N-terminal amino acids (transmembrane domain and part of stem), GST fusion (tag kept), pET-41a(+), E. coli BL21(DE3), glutathione-Sepharose purified) VRGQGQETSGPPRACPPEPPPEHWEEDASWGPHRLAVLVPFRERFEELLVFVPHMRRFLSRKKIRHHIYVLNQVDHFRFNRAALINVGFLESSNSTDYIAMHDVDLLPLNEELDYGFPEAGPFHVASPELHPLYRYKTYVGGILLLSKQHYRLCNGMSNRFWGWGREDDEFYRRIKGAGLQLFRPSGITTGYKTFRHLHDPAWRKRDQKRIAAQKQEQFKVDREGGLNTVKYHVASRTALSVGGAPCTVLNIMLDCDKTATPWCTFS	350 ± 30	1.49 ± 0.0217	4030	320 ± 20	1.49 ± 0.0217	4920
–	–	–	hβ4GalT7 (GST-β4GalT7) (Homo sapiens; H195A) (protein, truncated soluble form lacking the first 60 N-terminal amino acids (transmembrane domain and part of stem), GST fusion (tag kept), pET-41a(+), E. coli BL21(DE3), glutathione-Sepharose purified) VRGQGQETSGPPRACPPEPPPEHWEEDASWGPHRLAVLVPFRERFEELLVFVPHMRRFLSRKKIRHHIYVLNQVDHFRFNRAALINVGFLESSNSTDYIAMHDVDLLPLNEELDYGFPEAGPFHVASPELHPLYAYKTYVGGILLLSKQHYRLCNGMSNRFWGWGREDDEFYRRIKGAGLQLFRPSGITTGYKTFRHLHDPAWRKRDQKRIAAQKQEQFKVDREGGLNTVKYHVASRTALSVGGAPCTVLNIMLDCDKTATPWCTFS	640 ± 20	1.932 ± 0.162	3000	400 ± 20	1.932 ± 0.162	4850
–	–	–	hβ4GalT7 (GST-β4GalT7) (Homo sapiens; Y196F) (protein, truncated soluble form lacking the first 60 N-terminal amino acids (transmembrane domain and part of stem), GST fusion (tag kept), pET-41a(+), E. coli BL21(DE3), glutathione-Sepharose purified) VRGQGQETSGPPRACPPEPPPEHWEEDASWGPHRLAVLVPFRERFEELLVFVPHMRRFLSRKKIRHHIYVLNQVDHFRFNRAALINVGFLESSNSTDYIAMHDVDLLPLNEELDYGFPEAGPFHVASPELHPLYHFKTYVGGILLLSKQHYRLCNGMSNRFWGWGREDDEFYRRIKGAGLQLFRPSGITTGYKTFRHLHDPAWRKRDQKRIAAQKQEQFKVDREGGLNTVKYHVASRTALSVGGAPCTVLNIMLDCDKTATPWCTFS	1060 ± 60	0.5 ± 0.0183	467	340 ± 60	0.5 ± 0.0183	1470
–	–	–	hβ4GalT7 (GST-β4GalT7) (Homo sapiens; R270K) (protein, truncated soluble form lacking the first 60 N-terminal amino acids (transmembrane domain and part of stem), GST fusion (tag kept), pET-41a(+), E. coli BL21(DE3), glutathione-Sepharose purified) VRGQGQETSGPPRACPPEPPPEHWEEDASWGPHRLAVLVPFRERFEELLVFVPHMRRFLSRKKIRHHIYVLNQVDHFRFNRAALINVGFLESSNSTDYIAMHDVDLLPLNEELDYGFPEAGPFHVASPELHPLYHYKTYVGGILLLSKQHYRLCNGMSNRFWGWGREDDEFYRRIKGAGLQLFRPSGITTGYKTFRHLHDPAWRKRDQKKIAAQKQEQFKVDREGGLNTVKYHVASRTALSVGGAPCTVLNIMLDCDKTATPWCTFS	540 ± 70	0.812 ± 0.025	1420	370 ± 20	0.812 ± 0.025	2320
–	–	–	hβ4GalT7 (GST-β4GalT7) (Homo sapiens; H195Q) (protein, truncated soluble form lacking the first 60 N-terminal amino acids (transmembrane domain and part of stem), GST fusion (tag kept), pET-41a(+), E. coli BL21(DE3), glutathione-Sepharose purified) VRGQGQETSGPPRACPPEPPPEHWEEDASWGPHRLAVLVPFRERFEELLVFVPHMRRFLSRKKIRHHIYVLNQVDHFRFNRAALINVGFLESSNSTDYIAMHDVDLLPLNEELDYGFPEAGPFHVASPELHPLYQYKTYVGGILLLSKQHYRLCNGMSNRFWGWGREDDEFYRRIKGAGLQLFRPSGITTGYKTFRHLHDPAWRKRDQKRIAAQKQEQFKVDREGGLNTVKYHVASRTALSVGGAPCTVLNIMLDCDKTATPWCTFS	550 ± 20	1.62 ± 0.04	2950	330 ± 20	1.62 ± 0.04	4920
–	–	–	hβ4GalT7 (GST-β4GalT7) (Homo sapiens) (protein, truncated soluble form lacking the first 60 N-terminal amino acids (transmembrane domain and part of stem), GST fusion (tag kept), pET-41a(+), E. coli BL21(DE3), glutathione-Sepharose purified) VRGQGQETSGPPRACPPEPPPEHWEEDASWGPHRLAVLVPFRERFEELLVFVPHMRRFLSRKKIRHHIYVLNQVDHFRFNRAALINVGFLESSNSTDYIAMHDVDLLPLNEELDYGFPEAGPFHVASPELHPLYHYKTYVGGILLLSKQHYRLCNGMSNRFWGWGREDDEFYRRIKGAGLQLFRPSGITTGYKTFRHLHDPAWRKRDQKRIAAQKQEQFKVDREGGLNTVKYHVASRTALSVGGAPCTVLNIMLDCDKTATPWCTFS	350 ± 20	1.51 ± 0.0383	4170	220 ± 20	1.51 ± 0.0383	7080
–	–	–	hβ4GalT7 (GST-β4GalT7) (Homo sapiens; R226K) (protein, truncated soluble form lacking the first 60 N-terminal amino acids (transmembrane domain and part of stem), GST fusion (tag kept), pET-41a(+), E. coli BL21(DE3), glutathione-Sepharose purified) VRGQGQETSGPPRACPPEPPPEHWEEDASWGPHRLAVLVPFRERFEELLVFVPHMRRFLSRKKIRHHIYVLNQVDHFRFNRAALINVGFLESSNSTDYIAMHDVDLLPLNEELDYGFPEAGPFHVASPELHPLYHYKTYVGGILLLSKQHYRLCNGMSNRFWGWGKEDDEFYRRIKGAGLQLFRPSGITTGYKTFRHLHDPAWRKRDQKRIAAQKQEQFKVDREGGLNTVKYHVASRTALSVGGAPCTVLNIMLDCDKTATPWCTFS	460 ± 10	1.35 ± 0.0483	2920	290 ± 20	1.35 ± 0.0483	4700
–	–	–	hβ4GalT7 (GST-β4GalT7) (Homo sapiens; Y199F) (protein, truncated soluble form lacking the first 60 N-terminal amino acids (transmembrane domain and part of stem), GST fusion (tag kept), pET-41a(+), E. coli BL21(DE3), glutathione-Sepharose purified) VRGQGQETSGPPRACPPEPPPEHWEEDASWGPHRLAVLVPFRERFEELLVFVPHMRRFLSRKKIRHHIYVLNQVDHFRFNRAALINVGFLESSNSTDYIAMHDVDLLPLNEELDYGFPEAGPFHVASPELHPLYHYKTFVGGILLLSKQHYRLCNGMSNRFWGWGREDDEFYRRIKGAGLQLFRPSGITTGYKTFRHLHDPAWRKRDQKRIAAQKQEQFKVDREGGLNTVKYHVASRTALSVGGAPCTVLNIMLDCDKTATPWCTFS	590 ± 60	1.2 ± 0.0967	1880	320 ± 20	1.2 ± 0.0967	4050
–	–	–	hβ4GalT7 (GST-β4GalT7) (Homo sapiens; R226A) (protein, truncated soluble form lacking the first 60 N-terminal amino acids (transmembrane domain and part of stem), GST fusion (tag kept), pET-41a(+), E. coli BL21(DE3), glutathione-Sepharose purified) VRGQGQETSGPPRACPPEPPPEHWEEDASWGPHRLAVLVPFRERFEELLVFVPHMRRFLSRKKIRHHIYVLNQVDHFRFNRAALINVGFLESSNSTDYIAMHDVDLLPLNEELDYGFPEAGPFHVASPELHPLYHYKTYVGGILLLSKQHYRLCNGMSNRFWGWGAEDDEFYRRIKGAGLQLFRPSGITTGYKTFRHLHDPAWRKRDQKRIAAQKQEQFKVDREGGLNTVKYHVASRTALSVGGAPCTVLNIMLDCDKTATPWCTFS	440 ± 50	0.893 ± 0.0333	1870	340 ± 30	0.893 ± 0.0333	2850
–	–	–	hβ4GalT7 (GST-β4GalT7) (Homo sapiens; R270A) (protein, truncated soluble form lacking the first 60 N-terminal amino acids (transmembrane domain and part of stem), GST fusion (tag kept), pET-41a(+), E. coli BL21(DE3), glutathione-Sepharose purified) VRGQGQETSGPPRACPPEPPPEHWEEDASWGPHRLAVLVPFRERFEELLVFVPHMRRFLSRKKIRHHIYVLNQVDHFRFNRAALINVGFLESSNSTDYIAMHDVDLLPLNEELDYGFPEAGPFHVASPELHPLYHYKTYVGGILLLSKQHYRLCNGMSNRFWGWGREDDEFYRRIKGAGLQLFRPSGITTGYKTFRHLHDPAWRKRDQKAIAAQKQEQFKVDREGGLNTVKYHVASRTALSVGGAPCTVLNIMLDCDKTATPWCTFS	600 ± 20	0.773 ± 0.0033	1200	270 ± 10	0.773 ± 0.0033	3070
